Measured values as given in patent publication US20230159643A1 (H LUNDBECK A S, published 2023).
Substitutions are numbered along the chain they refer to.

T1: human wild type Sortilin on S18-HEK cells (human, UniProt Q99523 78-831)
T1 sequence: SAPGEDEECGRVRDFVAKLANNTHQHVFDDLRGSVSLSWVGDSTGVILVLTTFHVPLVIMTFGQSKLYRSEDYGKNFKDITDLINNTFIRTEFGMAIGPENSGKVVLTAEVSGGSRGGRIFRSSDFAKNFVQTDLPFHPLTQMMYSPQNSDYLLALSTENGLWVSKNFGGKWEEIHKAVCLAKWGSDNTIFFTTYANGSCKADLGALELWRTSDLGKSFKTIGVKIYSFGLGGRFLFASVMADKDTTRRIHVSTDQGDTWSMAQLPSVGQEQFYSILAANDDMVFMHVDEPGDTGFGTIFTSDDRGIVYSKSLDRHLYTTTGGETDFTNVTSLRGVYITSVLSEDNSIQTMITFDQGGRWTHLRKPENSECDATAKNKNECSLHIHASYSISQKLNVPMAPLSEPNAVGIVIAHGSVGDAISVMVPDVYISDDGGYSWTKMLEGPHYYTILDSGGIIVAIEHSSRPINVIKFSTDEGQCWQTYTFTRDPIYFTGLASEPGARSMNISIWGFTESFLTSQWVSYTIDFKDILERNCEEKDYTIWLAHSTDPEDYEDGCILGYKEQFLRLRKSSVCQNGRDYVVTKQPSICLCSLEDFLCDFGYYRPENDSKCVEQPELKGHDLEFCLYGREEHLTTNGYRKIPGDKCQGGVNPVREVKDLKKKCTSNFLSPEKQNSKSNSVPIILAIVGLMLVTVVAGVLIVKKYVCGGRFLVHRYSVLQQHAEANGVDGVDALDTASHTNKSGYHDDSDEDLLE

B1: 924 (antibody, V domains shown)
VH: QVQLQESGPGLVKPSQTLSLTCTVSGGSISSGNYYWNWIRQHPGKGLEWIGYIYYSGSTYYNPSLKSRVTISVDTSKNQFSLKLNSVTSADTAVYYCAALITSQNFFFDYWGQGTLVTVSS
VL: not shown
B2: 093-01 (antibody, V domains shown)
VH: VVQLLESGGGLVQPGGSLRLSCAASGFTFSSYAMSWVRQAPGKGLEWVSAISGSGGSTYYADSVKGRFTISRDNSMHTLFLQINSLRAEDTAVYYCVAIAAAGTNYFDYWGQGTLVTVSS
VL: not shown
B3: 093-05 (antibody, V domains shown)
VH: B2 VH
VL: not shown
B4: 849 (antibody, V domains shown)
VH: EVQLLESGGGLVQPGGSLRLSCAASGFTFNTFAMNWVRQAPGKGLEWVSAISGSGGSTYYADSVKGRFTISRDNSKNTLYLQMNSLRAEDTAVYYCAALVRGVRDAFDIWGQGTMVTVSS
VL: not shown
B5: 531 (antibody, V domains shown)
VH: EVQLLESGGGLVQPGGSLRLSCAASGFTFSRYVMSWVRQAPGKGLEWVSTISGSGGSTYYADSVKGRFTISRDNSKNTLFLQMNSLRAEDTAVYYCAEGAFGAFDIWGQGTMVTVSS
VL: not shown
B6: 1276 (antibody, V domains shown)
VH: EVQLLESGGGLVQPGGSLRLSCAASGFTFNTFAMNWVRQAPGKGLEWVSAITGSGGSTYYADSVKGRFTISRDNSKNTLYLQMNSLRAEDTAVYYCATPITVVRGVSAFDIWGQGTMVTVSS
VL: not shown
B7: 1289 (antibody, V domains shown)
VH: B6 VH with N30S, T31S, N35S, T52S, Y80S, V102L, S107G
VL: not shown
B8: 088 (antibody, V domains shown)
VH: EVQLLESGGGLVQPGGSLRLSCAASGFTFSTFAMSWVRQAPGKGLEWVSAISGSGGGTYYADSVKGRFTISRDNSKNTLYLQMNSLRAEDTAVYYCATYIVATIADAFDIWGQGTMVTVSS
VL: not shown
B9: 562 (antibody, V domains shown)
VH: B8 VH with G57S, K76E, T98S, Y99P, V101T, A102V, T103V, I104R, A105G, D106E
VL: not shown
B10: 566 (antibody, V domains shown)
VH: EVQLLESGGGLVQPGGSLRLSCVASGFTFSTFAMSWVRQAPGKGLEWVSAISGSGGSTYYADSVRGRFTVSRDNSKNTLYLQMNSLRAEDTAVYYCASPITMVRGEAFDIWGQGTMVTVSS
VL: not shown
B11: 044 (antibody, V domains shown)
VH: EVQLLESGGGLVQPGGSLRLSCAASGFTFSSYAMSWVRQAPGKGLEWVSAISGSGGNTYYADSVKGRSTISRDNSKNTLYLQMNSLRAEDTAVYYCASMVRGVFINFDYWGQGTLVTVSS
VL: not shown

Target: T1, human wild type Sortilin on S18-HEK …
Assay: cell-based or functional assay

| Binder | extracellular PGRN in medium of Sortilin over-expressing HEK cells (ELISA), % of untreated control |
| --- | --- |
| B1 | 125% |
| B2 | 116% |
| B3 | 140% |
| B4 | 149% |
| B5 | 140% |
| B6 | 163% |
| B7 | 117% |
| B8 | 121% |
| B9 | 139% |
| B10 | 139% |
| B11 | 166% |
